In patent US20190010233A1:

Assays:
[1] = target: cyno PD-L1^ECD-hFc protein (cyno) (UniProt G7PSE7); assay: ELISA, 1 nM mAb
[2] = target: human PD-L1^ECD-hFc protein (human) (UniProt Q9NZQ7); assay: ELISA, 1 nM mAb
[3] = target: cyno PD-L1^ECD-hFc protein (cyno) (UniProt G7PSE7); assay: ELISA, 3 nM mAb
[4] = target: human PD-L1^ECD-hFc protein (human) (UniProt Q9NZQ7); assay: ELISA, 3 nM mAb
[5] = target: human PD-L1^ECD-hFc protein (human) (UniProt Q9NZQ7); assay: ELISA, 10 nM mAb
[6] = target: human PD-L1^ECD-hFc protein (human) (UniProt Q9NZQ7); assay: ELISA, 30 nM mAb
[7] = target: cyno PD-L1^ECD-hFc protein (cyno) (UniProt G7PSE7); assay: ELISA, 10 nM mAb
[8] = target: cyno PD-L1^ECD-hFc protein (cyno) (UniProt G7PSE7); assay: ELISA, 30 nM mAb
[9] = target: cyno PD-L1^ECD-hFc protein (cyno) (UniProt G7PSE7); assay: ELISA, 100 nM mAb
[10] = target: human PD-L1^ECD-hFc protein (human) (UniProt Q9NZQ7); assay: ELISA, 100 nM mAb
[11] = target: cyno PD-L1^ECD-hFc protein (cyno) (UniProt G7PSE7); assay: ELISA, 0.01 nM mAb
[12] = target: human PD-L1^ECD-hFc protein (human) (UniProt Q9NZQ7); assay: ELISA, 0.01 nM mAb
[13] = target: cyno PD-L1^ECD-hFc protein (cyno) (UniProt G7PSE7); assay: ELISA, 0.03 nM mAb
[14] = target: human PD-L1^ECD-hFc protein (human) (UniProt Q9NZQ7); assay: ELISA, 0.03 nM mAb
[15] = target: cyno PD-L1^ECD-hFc protein (cyno) (UniProt G7PSE7); assay: ELISA, 0.041 nM mAb
[16] = target: human PD-L1^ECD-hFc protein (human) (UniProt Q9NZQ7); assay: ELISA, 0.041 nM mAb
[17] = target: cyno PD-L1^ECD-hFc protein (cyno) (UniProt G7PSE7); assay: ELISA, 0.123 nM mAb
[18] = target: human PD-L1^ECD-hFc protein (human) (UniProt Q9NZQ7); assay: ELISA, 0.123 nM mAb
[19] = target: cyno PD-L1^ECD-hFc protein (cyno) (UniProt G7PSE7); assay: ELISA, 0.001 nM mAb
[20] = target: human PD-L1^ECD-hFc protein (human) (UniProt Q9NZQ7); assay: ELISA, 0.001 nM mAb
[21] = target: cyno PD-L1^ECD-hFc protein (cyno) (UniProt G7PSE7); assay: ELISA, 0.003 nM mAb
[22] = target: human PD-L1^ECD-hFc protein (human) (UniProt Q9NZQ7); assay: ELISA, 0.003 nM mAb
[23] = target: cyno PD-L1^ECD-hFc protein (cyno) (UniProt G7PSE7); assay: ELISA, 0.0001 nM mAb
[24] = target: human PD-L1^ECD-hFc protein (human) (UniProt Q9NZQ7); assay: ELISA, 0.0001 nM mAb
[25] = target: cyno PD-L1^ECD-hFc protein (cyno) (UniProt G7PSE7); assay: ELISA, 0.0003 nM mAb
[26] = target: full length human PD-L1 on cells (human) (UniProt Q9NZQ7); assay: FACS CHOK1-hPD-L1, 3 nM mAb
[27] = target: full length human PD-L1 on cells (human) (UniProt Q9NZQ7); assay: FACS CHO-K1-hPD-L1, 1 nM mAb
[28] = target: full length cyno PD-L1 on cells (cyno) (UniProt G7PSE7); assay: FACS CHO-K1-cPD-L1, 1 nM mAb
[29] = target: full length human PD-L1 on cells (human) (UniProt Q9NZQ7); assay: FACS CHO-K1-hPD-L1, 10 nM mAb
[30] = target: full length human PD-L1 on cells (human) (UniProt Q9NZQ7); assay: FACS CHOK1-hPD-L1, 0.3 nM mAb
[31] = target: full length human PD-L1 on cells (human) (UniProt Q9NZQ7); assay: FACS CHO-K1-hPD-L1, 0.1 nM mAb
[32] = target: full length human PD-L1 on cells (human) (UniProt Q9NZQ7); assay: FACS CHOK1-hPD-L1, 0.03 nM mAb
[33] = target: full length cyno PD-L1 on cells (cyno) (UniProt G7PSE7); assay: FACS CHO-K1-cPD-L1, 0.3 nM mAb
[34] = target: full length cyno PD-L1 on cells (cyno) (UniProt G7PSE7); assay: FACS CHO-K1-cPD-L1, 3.70 nM mAb
[35] = target: full length human PD-L1 on cells (human) (UniProt Q9NZQ7); assay: FACS CHOK1-hPD-L1, 0.003 nM mAb
[36] = target: full length cyno PD-L1 on cells (cyno) (UniProt G7PSE7); assay: FACS CHO-K1-cPD-L1, 33.33 nM mAb
[37] = target: full length human PD-L1 on cells (human) (UniProt Q9NZQ7); assay: FACS CHO-K1-hPD-L1, 100.00 nM mAb
[38] = target: full length cyno PD-L1 on cells (cyno) (UniProt G7PSE7); assay: FACS CHO-K1-cPD-L1, 0.0003 nM mAb
[39] = target: hPD-L2 (human) (UniProt Q9BQ51); assay: ELISA, mAb concentration not given
[40] = target: human PD-L1^ECD-hFc protein (human) (UniProt Q9NZQ7); assay: ELISA, mAb concentration not given
[41] = target: full length cyno PD-L1 on cells (cyno) (UniProt G7PSE7); assay: FACS CHO-K1-cPD-L1, 0.001 nM mAb as printed (second such column)

Sequence of full length human PD-L1 on cells (human) (Q9NZQ7 19-290 limits assumed): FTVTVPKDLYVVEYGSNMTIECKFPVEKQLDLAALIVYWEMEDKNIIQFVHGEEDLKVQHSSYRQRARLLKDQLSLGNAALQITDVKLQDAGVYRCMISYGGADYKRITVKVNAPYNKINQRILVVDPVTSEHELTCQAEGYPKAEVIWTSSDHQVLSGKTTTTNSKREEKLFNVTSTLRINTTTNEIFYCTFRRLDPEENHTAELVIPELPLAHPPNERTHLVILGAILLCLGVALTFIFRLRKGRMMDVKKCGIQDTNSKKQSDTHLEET
Sequence of full length cyno PD-L1 on cells (cyno) (G7PSE7 entry or part of it limits assumed): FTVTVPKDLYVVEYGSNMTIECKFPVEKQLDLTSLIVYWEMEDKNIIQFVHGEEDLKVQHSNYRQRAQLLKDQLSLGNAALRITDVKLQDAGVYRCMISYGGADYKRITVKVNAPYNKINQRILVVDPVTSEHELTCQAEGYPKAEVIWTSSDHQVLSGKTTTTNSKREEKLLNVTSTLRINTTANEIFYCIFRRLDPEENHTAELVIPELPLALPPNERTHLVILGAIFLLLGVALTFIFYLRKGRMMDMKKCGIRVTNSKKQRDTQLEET
Sequence of human PD-L1^ECD-hFc protein (human) (Q9NZQ7 19-239): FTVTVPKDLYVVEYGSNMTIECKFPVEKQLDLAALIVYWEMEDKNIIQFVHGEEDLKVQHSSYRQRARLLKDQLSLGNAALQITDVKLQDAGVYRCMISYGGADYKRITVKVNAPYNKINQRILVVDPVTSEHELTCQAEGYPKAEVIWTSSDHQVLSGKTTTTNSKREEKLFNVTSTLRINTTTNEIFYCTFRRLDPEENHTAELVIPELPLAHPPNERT
Sequence of cyno PD-L1^ECD-hFc protein (cyno) (G7PSE7 entry or part of it limits assumed): as the sequence (Q9NZQ7 19-239) above, with A33T, A34S, S62N, R68Q, Q82R, F173L, T185A, T192I, H215L counted along it
Sequence of hPD-L2 (human) (Q9BQ51 20-219 limits assumed): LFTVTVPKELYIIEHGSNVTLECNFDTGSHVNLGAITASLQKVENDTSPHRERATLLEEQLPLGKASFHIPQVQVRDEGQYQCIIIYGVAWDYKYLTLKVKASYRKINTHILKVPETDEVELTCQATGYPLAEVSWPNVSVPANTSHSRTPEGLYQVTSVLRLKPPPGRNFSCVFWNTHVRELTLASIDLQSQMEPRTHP

## IgG control (human IgG) (antibody)
[1]
  OD450 nm: 0.0989
[2]
  OD450 nm: 0.157
[3]
  OD450 nm: 0.282
[4]
  OD450 nm: 0.277
[5]
  OD450 nm: 0.15
[6]
  OD450 nm: 0.12
[7]
  OD450 nm: 0.134
[8]
  OD450 nm: 0.306
[9]
  OD450 nm: 0.398
[10]
  OD450 nm: 0.767
[11]
  OD450 nm: 0.0987
[12]
  OD450 nm: 0.154
[13]
  OD450 nm: 0.276
[14]
  OD450 nm: 0.273
[15]
  OD450 nm: 0.11
[16]
  OD450 nm: 0.11
[17]
  OD450 nm: 0.11
[18]
  OD450 nm: 0.11
[19]
  OD450 nm: 0.0972
[20]
  OD450 nm: 0.149
[21]
  OD450 nm: 0.302
[22]
  OD450 nm: 0.298
[23]
  OD450 nm: 0.0988
[24]
  OD450 nm: 0.162
[25]
  OD450 nm: 0.273
[26]
  Mean fluorescence intensity: 3.56
[27]
  Mean fluorescence intensity: 2.51
[28]
  Mean fluorescence intensity: 1.83
[29]
  Mean fluorescence intensity: 2.73
[30]
  Mean fluorescence intensity: 3.16
[31]
  Mean fluorescence intensity: 2.55
[32]
  Mean fluorescence intensity: 2.92
[33]
  Mean fluorescence intensity: 3.73
[34]
  Mean fluorescence intensity: 2.73
[35]
  Mean fluorescence intensity: 3.03
[36]
  Mean fluorescence intensity: 2.94
[37]
  Mean fluorescence intensity: 2.7
[38]
  Mean fluorescence intensity: 3.76
[39]
  OD450 nm: 0.189
[40]
  OD450 nm: 0.206
[41]
  Mean fluorescence intensity: 7.33
